# How the values were obtained:
# [1] = molecular target: the molecule itself; experiment: SEC; Superdex 75 Increase 10/300 GL, 20 mM Tris, 150 mM NaCl, pH 7.6; no reducing agent (WT also with MV radicals); oligomer peak at 9.2 mL, dimer peak at 10.9 mL
# crystal structure = molecular target: the molecule itself; experiment: crystal structure
# [2] = molecular target: the molecule itself; experiment: SEC; as a1, protein treated with the reducing agent DTT
protein,measurement,setting,value
"CF ScdA S77C (enzyme, not shown: His6, N-terminal, kept) not shown",stoichiometry N,[1],2
"cysteine-free (CF) ScdA variant (C30A/C31A/C191A), N-terminal His6 tag (enzyme, also called CF variant; not shown: His6, N-terminal, kept) not shown",stoichiometry N,[1],2
"ScdA S77E variant (wild-type cysteines) (enzyme, also called S77E mutant; not shown: His6, N-terminal, kept) not shown",binding result,[1],binds
"tag-free variant of CF ScdA (tagless ScdA) (enzyme, also called CF ScdA (crystal); source: E. coli, purified (Q Sepharose, SEC)) not shown",stoichiometry N,crystal structure,2
"wild-type (WT) ScdA, S. aureus, N-terminal His6 tag (enzyme, also called as-isolated WT; reduced WT; not shown: His6, N-terminal, kept) not shown",stoichiometry N,[2],2
